{
  "source": "IntAct's records for PubMed 19909339",
  "parents": {"B1": {"name": "Olfactory receptor 2AG1 (Homo sapiens), Q9H205 (parent)", "chain": "MELWNFTLGSGFILVGILNDSGSPELLCATITILYLLALISNGLLLLAITMEARLHMPMYLLLGQLSLMDLLFTSVVTPKALADFLRRENTISFGGCALQMFLALTMGGAEDLLLAFMAYDRYVAICHPLTYMTLMSSRACWLMVATSWILASLSALIYTVYTMHYPFCRAQEIRHLLCEIPHLLKVACADTSRYELMVYVMGVTFLIPSLAAILASYTQILLTVLHMPSNEGRKKALVTCSSHLTVVGMFYGAATFMYVLPSSFHSTRQDNIISVFYTIVTPALNPLIYSLRNKEVMRALRRVLGKYMLPAHSTL"}},
  "data": [
    {"variants_of": "B1", "settings": "with mpdz_human MPDZ", "values": [
      {"variant": "S314W", "effect of a mutation on the interaction": "disrupting interaction"},
      {"variant": "L316W", "effect of a mutation on the interaction": "disrupting interaction"}
    ]}
  ]
}
